Data as given in paper PMC5473137, “Structure of a SMG8–SMG9 complex identifies a G-domain heterodimer in the NMD effector proteins” (RNA, 2017).

Biological target: T1, C. elegans SMG8c (SMG8 residues 1-423) (C. elegans, UniProt O62301 1-423)
T1 construct: SMG8, C. elegans, full length 873 residues; core fragment residues 1-423 (G-like domain and stalk); Selenomethionine-substituted protein (about 60% incorporation) was used for phasing; native crystals were soaked with GDP; SMG8 was insoluble when expressed in isolation; also called C.e; SMG8 1-423; CeSMG8
T1 sequence (looked up): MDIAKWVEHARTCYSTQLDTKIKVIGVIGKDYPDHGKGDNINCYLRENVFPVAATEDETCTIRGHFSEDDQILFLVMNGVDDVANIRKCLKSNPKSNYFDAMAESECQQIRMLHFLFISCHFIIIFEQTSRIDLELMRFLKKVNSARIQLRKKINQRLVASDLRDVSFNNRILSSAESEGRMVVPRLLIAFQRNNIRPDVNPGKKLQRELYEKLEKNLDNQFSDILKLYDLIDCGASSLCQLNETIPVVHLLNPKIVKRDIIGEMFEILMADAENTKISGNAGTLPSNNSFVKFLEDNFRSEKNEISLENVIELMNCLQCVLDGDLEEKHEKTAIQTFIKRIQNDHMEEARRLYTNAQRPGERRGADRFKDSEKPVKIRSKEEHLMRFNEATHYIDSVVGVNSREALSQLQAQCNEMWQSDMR
Experiment: crystal structure; coexpressed and co-purified SMG8c-SMG9c core complex; vapor diffusion, 10% PEG3350, 0.1M Tris pH 8.5, 0.11 mM YCl3; SeMet crystals (2.5 Å) and native crystals soaked with 10 mM GDP (2.65 Å); three copies of the complex in the asymmetric unit
Details: both partners purified

binding result: binds
B1: C. elegans SMG9c (SMG9 residues 59-375) (domain or fragment, UniProt Q9XWJ1 59-375, looked up)
chain: MKESVRFLTDFGEISDAISDLLTSSPNFNVISAIGPQGAGKSTLLSMLAGNNSRQMYREYVFRPVSREANEQSRHQTIQIDIYIVNHQIFLDCQPMYSFSIMEGLPKVRGGRFDDSTAMSDTLRLTAFLLYVSHTVLVVSETHYDKVIIDTLRVAEQIRPYLAIFRPKLAIDRKTNLVFIKTKASSIDLAPTVIREREELLRLSFQDSRWLKVSQEPFKTLIVLEEIRVRREHLFEEGDEPDEAASLNEFDEQIAELREELQKNREDFTVETAAMDEKKWLDMCREVIRDKTLHKTLKEYQRAMTDGVRTHFDNGFH
notes: SMG9, C. elegans, full length 385 residues; core fragment residues 59-375 (G domain); Selenomethionine-substituted protein (about 60% incorporation) was used for phasing; native crystals were soaked with GDP; also called C.e; SMG9 59-375; CeSMG9c
